No end group written: not given here.
B1: αO-conotoxin GeXIVA14 (peptide)
peptide: TCRSSGRYCRSPYDRRRRYCRRITDACV
modifications: not fully specified; ends and bridges not checked
B2: αO-conotoxin GeXIVA13 (peptide)
peptide: TCRSSGRYCRSPYDRRRRYCRRITDACV
modifications: not fully specified; ends and bridges not checked

How the values were obtained:
Assay in all cases: cell-based or functional assay
[1] = target: rat NMDA receptor NR1-2b/NR2D (rat, UniProt P35439)
[2] = target: rat NMDA receptor NR1-2b/NR2A (rat, UniProt P35439)
rat α7 nAChR = rat α7 nAChR (rat, UniProt Q05941)

Binder | Half-blocking dose IC50 of NMDA receptor current [1] | Half-blocking dose IC50 of NMDA receptor current [2] | Half-blocking dose IC50 of ACh-gated current (rat α7 nAChR)
B1 | ≥ 10 µM |  | 
B2 | ≥ 10 µM | > 10 µM | 4.96 µM

Reference: patent US9718864B2 (HAINAN UNIVERSITY, dated 2017)
